This assay relates to steviol glycoside. Kind of assay: steviol glycoside bioconversion by E. coli expressing individual mutations of UGT SEQ ID NO: 14. Type of assay: cell-based. Conditions: fold improvement of % conversion vs parent UGT SEQ ID NO: 14; stevia leaf extract and glucose fed; 37° C., 48 hr. How it is done:
Fold improvement is with respect to % steviol glycoside conversion of the parent UGT enzyme of SEQ ID NO: 14. The UGT enzyme of SEQ ID NO: 15 has the following mutations from SEQ ID NO: 14: ins_A2_T3_RR, H59P, A238E, L417F. Stevia leaf extract and glucose were fed to the bioconversion strains. Bioconversion took place at 37° C. for 48 hr. Data were quantified by reverse phase LC DAD to quantify conversion of steviol glycosides.
Fold improvement (FI) is with respect to % steviol glycoside conversion.

Numbering of substitutions follows the chain as printed. Names may count otherwise.

B1: ins_A2_T3_R: SEQ ID NO: 14 with insertion of Arg between A2 and T3 (protein)
chain: MARTKNSSGMSLAERFWLTLSRSSLVVGRSCVEFEPETVPLLSTLRGKPITFLGLMPPLHEGRREDGEDATVRWLDAQPAKSVVYVALGSEVPLGVEKVHELALGLELAGTRFLWALRKPTGVSDADLLPAGFEERTRGRGVVATRWVPQMSILAHAAVGAFLTHCGWNSTIEGLMFGHPLIMLPITGDQGPNARLIEAKNAGLQVARNDGDGSFDREGVAAAIRAVAVEEESSKVFQAKAKKLQEIVADMACHERYIDGFIQQLRSYKDDSGYSSSYAAAAGMHVVICPWLAFGHLLPCLDLAQRLASRGHRVSFVSTPRNISRLPPVRPALAPLVAFVALPLPRVEGLPDGAESTNDVPHDRPDMVELHRRAFDGLAAPFSEFLGTACADWVIVDSFHHWAAAAALEHKVPCAMMLLGSAEMIASIADERLEHAETESPAAAGQGRPAAAPTFEVARMKLIR
Turning to B1, the “FI %Stevioside→rebE” value is given as 1.9 and the “FI %rebA→rebD” value turned out to be 1.6.

B2: V26I: mutation to UGT enzyme of SEQ ID NO: 14 (protein)
chain: MATKNSSGMSLAERFWLTLSRSSLVIGRSCVEFEPETVPLLSTLRGKPITFLGLMPPLHEGRREDGEDATVRWLDAQPAKSVVYVALGSEVPLGVEKVHELALGLELAGTRFLWALRKPTGVSDADLLPAGFEERTRGRGVVATRWVPQMSILAHAAVGAFLTHCGWNSTIEGLMFGHPLIMLPITGDQGPNARLIEAKNAGLQVARNDGDGSFDREGVAAAIRAVAVEEESSKVFQAKAKKLQEIVADMACHERYIDGFIQQLRSYKDDSGYSSSYAAAAGMHVVICPWLAFGHLLPCLDLAQRLASRGHRVSFVSTPRNISRLPPVRPALAPLVAFVALPLPRVEGLPDGAESTNDVPHDRPDMVELHRRAFDGLAAPFSEFLGTACADWVIVDSFHHWAAAAALEHKVPCAMMLLGSAEMIASIADERLEHAETESPAAAGQGRPAAAPTFEVARMKLIR
Turning to B2, the “FI %Stevioside→rebE” value was found to be 1.18 and the “FI %rebA→rebD” value worked out at 1.16.

B3: Q262E: mutation to UGT enzyme of SEQ ID NO: 14 (protein)
chain: B2 chain with I26V, Q262E
On to B3, for which the “FI %Stevioside→rebE” value amounted to 2.0 and the “FI %rebA→rebD” value was found to be 1.7.

B4: L417M: mutation to UGT enzyme of SEQ ID NO: 14 (protein)
chain: B2 chain with I26V, L417M
For the molecule B4, the “FI %Stevioside→rebE” value was determined as 1.02 and the “FI %rebA→rebD” value worked out at 1.02.

B5: E254D: mutation to UGT enzyme of SEQ ID NO: 14 (protein)
chain: B2 chain with I26V, E254D
As to B5, the “FI %Stevioside→rebE” value came to 1.7 and the “FI %rebA→rebD” value is recorded as 1.5.

B6: S123D: mutation to UGT enzyme of SEQ ID NO: 14 (protein)
chain: B2 chain with I26V, S123D
In the case of B6, the “FI %Stevioside→rebE” value came out at 1.7 and the “FI %rebA→rebD” value was found to be 1.5.

B7: R145S: mutation to UGT enzyme of SEQ ID NO: 14 (protein)
chain: B2 chain with I26V, R145S
As for B7, the “FI %Stevioside→rebE” value came to 1.06 and the “FI %rebA→rebD” value came out at 1.14.

B8: D269R: mutation to UGT enzyme of SEQ ID NO: 14 (protein)
chain: B2 chain with I26V, D269R
Turning to B8, the “FI %Stevioside→rebE” value came to 2.0 and the “FI %rebA→rebD” value was 1.7.

B9: T453M: mutation to UGT enzyme of SEQ ID NO: 14 (protein)
chain: B2 chain with I26V, T453M
As for B9, the “FI %Stevioside→rebE” value came out at 1.7 and the “FI %rebA→rebD” value stood at 1.5.

B10: L417F: mutation to UGT enzyme of SEQ ID NO: 14 (protein)
chain: B2 chain with I26V, L417F
As for B10, the “FI %Stevioside→rebE” value was determined as 1.34 and the “FI %rebA→rebD” value is reported as 1.24.

B11: C299A: mutation to UGT enzyme of SEQ ID NO: 14 (protein)
chain: B2 chain with I26V, C299A
As to B11, the “FI %Stevioside→rebE” value was 0.76 and the “FI %rebA→rebD” value is given as 1.03.

B12: A238E: mutation to UGT enzyme of SEQ ID NO: 14 (protein)
chain: B2 chain with I26V, A238E
B12: the “FI %Stevioside→rebE” value worked out at 1.9 and the “FI %rebA→rebD” value was 1.6.

B13: L203I: mutation to UGT enzyme of SEQ ID NO: 14 (protein)
chain: B2 chain with I26V, L203I
For B13, the “FI %Stevioside→rebE” value is on record as 1.6 and the “FI %rebA→rebD” value amounted to 1.5.

B14: S308Q: mutation to UGT enzyme of SEQ ID NO: 14 (protein)
chain: B2 chain with I26V, S308Q
Regarding B14, the “FI %Stevioside→rebE” value worked out at 1.6 and the “FI %rebA→rebD” value was determined as 1.6.

B15: T3R: mutation to UGT enzyme of SEQ ID NO: 14 (protein)
chain: B2 chain with T3R, I26V
As to B15, the “FI %Stevioside→rebE” value is listed as 1.9 and the “FI %rebA→rebD” value came to 1.6.

B16: H99T: mutation to UGT enzyme of SEQ ID NO: 14 (protein)
chain: B2 chain with I26V, H99T
For the molecule B16, the “FI %Stevioside→rebE” value turned out to be 0.76 and the “FI %rebA→rebD” value turned out to be 1.04.

B17: P39T: mutation to UGT enzyme of SEQ ID NO: 14 (protein)
chain: B2 chain with I26V, P39T
As to B17, the “FI %Stevioside→rebE” value is listed as 1.31 and the “FI %rebA→rebD” value turned out to be 0.98.

B18: T43D: mutation to UGT enzyme of SEQ ID NO: 14 (protein)
chain: B2 chain with I26V, T43D
For the molecule B18, the “FI %Stevioside→rebE” value turned out to be 1.29 and the “FI %rebA→rebD” value is 1.08.

B19: G94R: mutation to UGT enzyme of SEQ ID NO: 14 (protein)
chain: B2 chain with I26V, G94R
With B19, the “FI %Stevioside→rebE” value is recorded as 1.12 and the “FI %rebA→rebD” value amounted to 1.13.

B20: S151R: mutation to UGT enzyme of SEQ ID NO: 14 (protein)
chain: B2 chain with I26V, S151R
For B20, the “FI %Stevioside→rebE” value was 1.6 and the “FI %rebA→rebD” value is 1.5.

B21: Y267H: mutation to UGT enzyme of SEQ ID NO: 14 (protein)
chain: B2 chain with I26V, Y267H
In the case of B21, the “FI %Stevioside→rebE” value is 1.8 and the “FI %rebA→rebD” value came to 1.6.

B22: L11I: mutation to UGT enzyme of SEQ ID NO: 14 (protein)
chain: B2 chain with L11I, I26V
B22: the “FI %Stevioside→rebE” value is recorded as 1.39 and the “FI %rebA→rebD” value came out at 1.16.

B23: S29T: mutation to UGT enzyme of SEQ ID NO: 14 (protein)
chain: B2 chain with I26V, S29T
With B23, the “FI %Stevioside→rebE” value is 1.05 and the “FI %rebA→rebD” value was 1.00.

B24: V31P: mutation to UGT enzyme of SEQ ID NO: 14 (protein)
chain: B2 chain with I26V, V31P
B24: the “FI %Stevioside→rebE” value was 1.22 and the “FI %rebA→rebD” value came out at 1.08.

B25: V95Q: mutation to UGT enzyme of SEQ ID NO: 14 (protein)
chain: B2 chain with I26V, V95Q
Regarding B25, the “FI %Stevioside→rebE” value came out at 1.8 and the “FI %rebA→rebD” value was 1.6.

B26: I152L: mutation to UGT enzyme of SEQ ID NO: 14 (protein)
chain: B2 chain with I26V, I152L
Turning to B26, the “FI %Stevioside→rebE” value is listed as 1.09 and the “FI %rebA→rebD” value was 1.15.

The record behind these values is patent US20260242839A1, “GLYCOSIDE PRODUCT BIOSYNTHESIS AND RECOVERY” (Manus Bio Inc., priority 2023, published 2026).
